Data set [1] concerns the molecule itself. As to the kind of experiment: size exclusion chromatography and negative stain EM, self-assembly.
Data set [2] deals with the molecule itself. Put plainly: electron cryo-tomography of released vesicles, self-assembly.

Changes are numbered by the printed parent chain. In names and notes the source's numbering stands.

B1: Myr-I3-01-myc-p6 (designed binder)
chain: MGARASGSKSGSGSDSGSKMEELFKKHKIVAVLRANSVEEAKKKALAVFLGGVHLIEITFTVPDADTVIKELSFLKEMGAIIGAGTVTSVEQCRKAVESGAEFIVSPHLDEEISQFCKEKGVFYMPGVMTPTELVKAMKLGHTILKLFPGEVVGPQFVKAMKGPFPNVKFVPTGGVNLDNVCEWFKAGVLAVGVGSALVKGTPVEVAEKAKAFVEKIRGCTEQKLISEEDLQSRPEPTAPPEESFRSGVETTTPPQKQEPIDKELYPLTSLRSLFGNDPSSQ
modifications: N-terminal myristoylation motif (6 N-terminal amino acids of HIV Gag); not myristoylated when produced in E. coli
notes: Forms icosahedral assemblies like I3-01; also called Myr-I3-01-p6
For the protein B1, the binding result in data set [1] was “binds”.

B2: EPN-01 (designed binder)
chain: B1 chain with M20I
modifications: N-terminal myristoylation motif (6 N-terminal amino acids of HIV Gag)
notes: Every subunit bears the M domain; also called Myr1-12GS-I3-01(M3I)-myc-Late1
B2: the binding result in data set [2] is “binds”.

The values are drawn from US20200224186A1 (University of Washington, published 2020).
